Results from a protein production outcome set (Wang et al. 2014).

Test: label from the status in PepcDB records

Row | Sequence | protein production
1 | MIIMVTEVDVLVIGAGPAGSTAAKHAALGGADVLLIDKKSEIGAPKRCAEGVSIGGLESLGIEPNPRWITKKLDGVRMVSPNGTDVWLTSDKVELPEAGYILERKVFDKFMAMDAARAGSRIMVKTIATGMERTDDGYLVSAECMGEKFEIKARIVIAADGPESRVARWAGLNTATRPKDMESAAQFEMVGVEMEDNNCIEFYFGSVAPGGYALDIPEGDDIANVGLGVLSTETDKSAYEHLLEFVESCPATRNAQPVELNIGGDPVGGMPKKLVADSLMVVGDAAGQVNPLTGGGIISGMKGGMLAGQVAAAAVSEGDVTARRLGEYERLCREEIGDEISKYLKVKEYLLTLSDSELDSIAEAFQDVEFEKVSTTELVKKLIKVSPKALLKLGKLFLEHHHHHH | failed
2 | STFYVEFNRKDSDKTLAKAFQNKKIRQALSLAINRKSYVNNTLGNGSTVSKGYVSEDLAKNPTTGKDFTTDAAVPSAVDYNLTKAKKLWKEGLKEIGETKLNIKLLSDDTDAGKKATEFIQGGWEKLPGLTVTNQNVPFKTRLQRSQNGNFDTVISAWNADFTDPISFLSLFTSDNSYNNGKYDSAAYDDAVKKAEGADANNKTARWADMVAAEKQLMNDQGVIPIYQQASATLTRSNLKGIIYNTAGSNYNFKYMSVK | failed
3 | MSQMMQMYQQVGPAQFSAMIGQFAPYFASIAPQFVELRPGYAEVTFPKRREVLNHIGTVHAIALCNAAELAAGTMTDASIPAGHRWIPRGMTVEYLAKATGDVRAVADGSQIDWQATGNLVVPVVAYVDDKPVFRAEITMYVSQA | not failed
4 | MTTTSSINERQVLKHLQAQLPDCLLLDRFHLKRRLQQVGAMLEQGKPVDKLMTELATKVQTSLQRRQLRQEQLPKPEYPAELPVSARKDEIAQAIAKHQVVIVSGETGSGKTTQLPKICLELGRGVAGLIGHTQPRRIAARSVASRIAQELKSPLGEAVGYKVRFNDRLSETTYIKLMTDGILLAETQGDRFLNAYDTIIIDEAHERSLNIDFLLGYLKQLLPRRPDLKVIVTSATIDAERFSRHFNGAPVIEVSGRTYPVEIRYRPLGSRRMVVAPPAPVAAPVPVVAQKEEAPQEDIIDIGIKRKAGNIDPSIRKWLEDDNDVEVLGQDIMGIQRKPRAEAKWLEEDDAEEAMEEAILDSVEQLSRLGGGDILVFLPGEREIRETADYLNKHLRHVEILPLFARLSIEDQQKVFRSSGGRRVVLATNVAETSLTVPGIKYVIDTGLARVNRYSARAKVEQLQVEKISQAAARQRAGRCGRVSNGICIRLYDEADFNHRPEFTDPEILRSSLAAVILRMAALKLGNVQDFPFIEAPSSRYIADGYQLLQELGAVDAEQNITDTGRQLARLPLDPRVSRMILEGKKQGCVREILIIASALAIQDPRERPMDKREAADQAHAKFNVEHSDFLGFIKLWEWYEDALKTKKSNKDLLNKCHSNFLSFLRLKEWRELYQQLREIAEELELKLNEQPASYEQVHRALLAGLLGNIGFKDGEADNYLGARGIRFHIAPGSTLKKARPKWVMAAELMETTKLYARCVARIEPDWIEPLARGLTQSHYSDPRWDRKAAQVVAWERVSLYGLTVVPRRRVHYGPINPQESREIFIREALANMEFDTRAPFFAANRKLIAEIEELEHKARRQDVLVDEHTLFAFYDAIIPAGIVNGAGFEKWRQEAERETPRLLYLTRDHLMRHGAAGVTEVQFPESLELDGVKLPLKYRFEPGHPLDGVTATVPLALLNQLNPVEAEWLVPGMIREKVTALIKALPKTLRRVCVPVPDFVTGFLETATRKDGALLPALASYIQQRTGLKLSASEWQADALDAHLYMNFRVVDEKNRELGSGRDWHALKAQLGQAAQLTFRSNSPGIEKAGLKQWDFGDLPPTLSFSRDGRQLTGYPALEDNGDSVAIKLFDTELAARQSHRAGVRRLMRFELKEQMKQLEKGLPGFNQYALQLRSIMSPEELREDMLVAISDRAFIGEDELPRNSQDFMALKARARTRLPAVVEGAGRLATAIATEYTQLTQKLNAAPASLSRVKKELEGQLARLLPKRFFSATPWDTLQHLPRYIKAMRLRLEKYPGAIERDTRSGQAVQQIWERWESHVQGLRKANQEVPPAVLDYRWLIEELRVSLFAQELKTPFPVSVKRLDKAWEDMVRA | failed
5 | MSVQTIERLQDYLLPEWVSIFDIADFSGRMLRIRGDIRPALLRLASRLAELLNESPGPRPWYPHVASHMRRRVNPPPETWLALGPEKRGYKSYAHSGVFIGGRGLSVRFILKDEAIEERKNLGRWMSRSGPAFEQWKKKVGDLRDFGPVHDDPMADPPKVEWDPRVFGERLGSLKSASLDIGFRVTFDTSLAGIVKTIRTFDLLYAEAEKGS | not failed
6 | AADGEGRGELSPKIKAGDLESKLIVPKNNGLKITGTFLDEISHDIPHQNWGEKEWDLDFQHMKRIGIDTVIMIRSGYRKFMTYPSPYLLKKGCYMPSVDLVDMYLRLAEKYNMKFYFGLYDSGRYWDTGDLSWEIEDNKYVIDEVWKMYGEKYKSFGGWYISGEISRATKGAIDAFRAMGKQCKDISNGLPTFISPWIDGKKAIMGTGKLTREDAVSVQQHEKEWNEIFDGIHEVVDACAFQDGHIDYDELDAFFTVNKKLADKYGMQCWTNAESFDRDMPIRFLPIKFDKLRMKLEAAKRAGYDKAITFEFSHFMSPQSAYLQAGHLYDRYREYFEIK | not failed
7 | MKKIIAITGFAMLGGGLREGLSLLVTWPQHFWITCLINIVGAFVLSLITNLLPARLPVSEDIVIGMSVGFVGSFTTFSTFTFETLQSFQSGHSVLALSYVAASLGLGLLAGLAGNFLSTYWLPKEEF | failed
8 | MILNILLNLAIFIIPSLAVWNQIILYIFGKSGDIANLILLNNESNLPKLSIIVPTKGERIEVIQGLIDNIHEAIWDRNKLEIIIVSDDEQEYFDKLLSTLIIPPDLDVRIFRREKKLGYKSGALAFGLQKSTGDLILTLDVDARIEKDSLIKAYNHMVNLGCDAITMEWHGYSNISTSLAKALMVSTVLTSKSILRGRDKLGLKVLPIGCGTIYKRSALEAVNGWDYKMIQDDYELGARLINKGFKVCASSSPVYVEVPDNLIAFYVQQTRWAMGTMEVLYWRFKYIISSDIKLWQKLEIIAYLSQYIPIILTFISAIIFAIAGFVGIRLSMNLPMFIIWAITLSIYASIFVNSAKKSGIDTVTAIKALGRLSAYTVGISPFLLIGTINAFKKTRTYIVTPKGKKAKSNIGYPILAFGVFFILSAFLYMFRGDFLTFIWLAYYSIAFLYTFIAYIKGL | failed
9 | MPELKVVVSIKQVPDVDELRIDPVTNNLVREGVPAVINPPDLHAIEEAVRLKERYGAKTIVITMGPPQADSALREALAMGIDEAYLISDRAMAGADTWATSYTISKAVQKLGGADLILFGRRAVDGETEQVGPQTGKWLGLPVIGYVSEIKSLEKDKIVVTRTTEFDEEVIEAPVPVVLTILEVANKPRQPDILSLIKAKTAKVTVWNKDDIKAEPNKIGLAGSPTKVIKVQPPPKTRKAEIIDGKKDVEKAAKWFLDKIFESLKE | failed
10 | MSEDRTGHQGISGPATRAIHAGYRPDPATGAVNVPIYASSTFAQDGVGGLRGGFEYARTGNPTRAALEASLAAVEEGAFARAFSSGMAATDCALRAMLRPGDHVVIPDDAYGGTFRLIDKVFTRWDVQYTPVRLADLDAVGAAITPRTRLIWVETPTNPLLSIADITAIAELGTDRSAKVLVDNTFASPALQQPLRLGADVVLHSTTKYIGGHSDVVGGALVTNDEELDEEFAFLQNGAGAVPGPFDAYLTMRGLKTLVLRMQRHSENACAVAEFLADHPSVSSVLYPGLPSHPGHEIAARQMRGFGGMVSVRMRAGRRAAQDLCAKTRVFILAESLGGVESLIEHPSAMTHASTAGSQLEVPDDLVRLSVGIEDIADLLGDLEQALG | not failed
11 | MPKTSHPFQLSLLALAVSAVLVSGCNSSDNDDDLATEAQVTGLTLEFAGRYSTGQFDESAAEITAFDPASRRAFVVNALSGAVDVLDMSDPVNPAKIDTLTVADIAADAVVNSVAVANGLVAVAVESNPKTDPGYVAVFGAADLQLRDSIQVGAQPDMVTFTPDGQYVLAANEGEPSDDYQVDPEGSISVVDVSNPASLTVRIADFLAFNSQESDLKASGVRIYGPGATVAQDLEPEYITVSADSRAAWVSLQENNALAKLDIDTATVTGILPLGFKDYGVEGQGIDASDDDGVINIQRWPGVVGIYHPDAIDSYQANGETFIVTANEGDARAWGEDDADYWNGDSSRGFVEELRVKHLVHPDGFARRIGDDMPSQLTALAEGALLNPSVFDYCGATAGAANACRDDDQLGRLNISWVQGYRVDENGAPVMFNASGAEDPDGTLLMYDQLYSYGTRSLAIWNEDGELVWDSGDAIEQFLASEDCRLGTARSIPCSDHFNSAHDEGMAFDSRSDAKGPEPEAVTVATFGNKTFAFLGLERMGGILVYDVTDPASPVQVDYLNTRDDWTTVDTASVLETAGDLGVESITVVAADDSPTGEPLLITGNEVSGTTAIYRVKLELTD | failed
12 | NLMKRCTRGFRKLGKCTTLEEEKCKTLYPRGQCTCSDSKMNTHSCDCKSC | not failed
